Assay results reported in patent publication US20120328616A1.

Molecular target: human FGFR1c/human β-Klotho complex (FGF21 receptor) (human) (UniProt P11362)
Test: cell-based or functional assay

EC50, pERK Human Adipocyte Assay: 0.623 nM
Substance: human FGF21 (ligand)
